From PMC7248283
Values joined by “and” are separate entries in the source; they are usually repeats but may differ in a detail not shown here. Identical values can stand only once.

Key:
[1] = target: FliS (flagellar export chaperone FliS of Helicobacter pylori), GST tag removed (Helicobacter pylori (strain 26695)); test: MST; labelled FliS or FliS-FlaBc (40 nM) mixed with HP1076 (6.2 μM to 0.189 nM, or 3.83 mM to 117 μM); 20 mM Tris pH 7.5, 150 mM NaCl, 2 mM DTT; 21.5°C
[2] = target: FliS-FlaBc complex (Helicobacter pylori (strain 26695) | Helicobacter pylori) (UniProt Q07911); test: as above
[3] = target: GST-FliS (Helicobacter pylori (strain 26695)); test: pull-down; competitive: the same experiment as a5, for purified HP1076 added at molar ratios to GST-FliS of 0, 0.5:1, 5:1 and 50:1 in the presence of H. pylori lysate; read-out is the flagellin band

B1: His-HP1076 (natural protein)
chain: MDILKTLQKHLGDVETSDFTTNAIEKSQQIAKFSRDMKNINESVGALQVLQIACKKLFNKSMGLEDKDALQASIIKQELREIVENCQFLASPLFDTQLNIAINDEIFSMIVVNPLDLLENVGEFQAYLEEKLNEIKELLGYLSESLSNPKAFMPSFSNQSLKDLLSDNLRA
With B1 the Kd [1] was 0.015 µM, the Kd [2] was 1600 µM and the binding of flagellin (FlaA/FlaB band) to GST-FliS left when saturated by HP1076 (fraction of the binding without HP1076) [3] was 0.2 and 0.25.
